Test results reported in patent publication US5756291.
Read-outs that look alike come from different tables or passages of the source.

Assays:
[1] = target: thrombin (alpha, Factor IIa) (Homo sapiens) (UniProt P00734+P00734); experiment: filter
kallikrein = kallikrein (UniProt P03952+P03952); experiment: filter; settings: ~1 uM protein
Chain of kallikrein (P03952 20-390, chain 1 of 2): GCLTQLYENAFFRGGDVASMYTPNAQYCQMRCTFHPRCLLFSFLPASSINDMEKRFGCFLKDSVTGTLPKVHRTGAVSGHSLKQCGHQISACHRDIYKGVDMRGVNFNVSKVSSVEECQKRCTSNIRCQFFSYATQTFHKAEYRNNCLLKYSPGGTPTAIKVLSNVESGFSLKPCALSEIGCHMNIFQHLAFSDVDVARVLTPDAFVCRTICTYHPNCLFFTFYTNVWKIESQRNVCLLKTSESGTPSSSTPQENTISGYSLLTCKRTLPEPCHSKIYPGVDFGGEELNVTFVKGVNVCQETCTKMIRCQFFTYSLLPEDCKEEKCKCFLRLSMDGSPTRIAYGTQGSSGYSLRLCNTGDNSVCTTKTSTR
Chain of kallikrein (P03952 391-638, chain 2 of 2): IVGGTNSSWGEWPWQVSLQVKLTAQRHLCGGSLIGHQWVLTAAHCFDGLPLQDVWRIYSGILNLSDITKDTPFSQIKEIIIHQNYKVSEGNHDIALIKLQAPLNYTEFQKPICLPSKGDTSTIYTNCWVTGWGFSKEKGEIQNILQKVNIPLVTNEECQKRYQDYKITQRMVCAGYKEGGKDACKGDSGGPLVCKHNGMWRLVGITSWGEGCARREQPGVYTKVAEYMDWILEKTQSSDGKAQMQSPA

TAGAATACTCAAGCTTCGACGNNNNNNNNNNNNNNNNNNNNAGTTTGGATCCCCGGGTAC [unselected pentynyl-dU pool]
Kd ([1]; 5-(1-pentynyl)-dU replacing T in amplified region, unit micro sign lost in print): > 10 µM

TAGAATACTCAAGCTTCGACGNNNNNNNNNNNNNNNNNNNNAGTTTGGATCCCCGGGTAC [pentynyl-dU Round 6 pool]
Kd ([1]; 5-(1-pentynyl)-dU replacing T in amplified region): 0.4 µM

TAGAATACTCAAGCTTCGACGNNNNNNNNNNNNNNNNNNNNAGTTTGGATCCCCGGGTAC [Round 6 pool prepared with thymidine]
Kd [1]: > 10 µM

CGGGGAGAGGTTGGTGTGGTTGGCAATGGCTAGAGTAGTGACGTTTTCGCGGTGAGGTCC
binding signal (kallikrein): < 0.5 % bound
